The values that follow are results of earlier work, collected in article PMC11209288.

A word on the Kd: it is the constant that tells how readily two partners part at equilibrium.

The target of the series is inositol 1,4,5-triphosphate receptor (IP3R) (Homo sapiens) (UniProt Q14643).
Sequence of UniProt Q14643 (Q14643 whole entry): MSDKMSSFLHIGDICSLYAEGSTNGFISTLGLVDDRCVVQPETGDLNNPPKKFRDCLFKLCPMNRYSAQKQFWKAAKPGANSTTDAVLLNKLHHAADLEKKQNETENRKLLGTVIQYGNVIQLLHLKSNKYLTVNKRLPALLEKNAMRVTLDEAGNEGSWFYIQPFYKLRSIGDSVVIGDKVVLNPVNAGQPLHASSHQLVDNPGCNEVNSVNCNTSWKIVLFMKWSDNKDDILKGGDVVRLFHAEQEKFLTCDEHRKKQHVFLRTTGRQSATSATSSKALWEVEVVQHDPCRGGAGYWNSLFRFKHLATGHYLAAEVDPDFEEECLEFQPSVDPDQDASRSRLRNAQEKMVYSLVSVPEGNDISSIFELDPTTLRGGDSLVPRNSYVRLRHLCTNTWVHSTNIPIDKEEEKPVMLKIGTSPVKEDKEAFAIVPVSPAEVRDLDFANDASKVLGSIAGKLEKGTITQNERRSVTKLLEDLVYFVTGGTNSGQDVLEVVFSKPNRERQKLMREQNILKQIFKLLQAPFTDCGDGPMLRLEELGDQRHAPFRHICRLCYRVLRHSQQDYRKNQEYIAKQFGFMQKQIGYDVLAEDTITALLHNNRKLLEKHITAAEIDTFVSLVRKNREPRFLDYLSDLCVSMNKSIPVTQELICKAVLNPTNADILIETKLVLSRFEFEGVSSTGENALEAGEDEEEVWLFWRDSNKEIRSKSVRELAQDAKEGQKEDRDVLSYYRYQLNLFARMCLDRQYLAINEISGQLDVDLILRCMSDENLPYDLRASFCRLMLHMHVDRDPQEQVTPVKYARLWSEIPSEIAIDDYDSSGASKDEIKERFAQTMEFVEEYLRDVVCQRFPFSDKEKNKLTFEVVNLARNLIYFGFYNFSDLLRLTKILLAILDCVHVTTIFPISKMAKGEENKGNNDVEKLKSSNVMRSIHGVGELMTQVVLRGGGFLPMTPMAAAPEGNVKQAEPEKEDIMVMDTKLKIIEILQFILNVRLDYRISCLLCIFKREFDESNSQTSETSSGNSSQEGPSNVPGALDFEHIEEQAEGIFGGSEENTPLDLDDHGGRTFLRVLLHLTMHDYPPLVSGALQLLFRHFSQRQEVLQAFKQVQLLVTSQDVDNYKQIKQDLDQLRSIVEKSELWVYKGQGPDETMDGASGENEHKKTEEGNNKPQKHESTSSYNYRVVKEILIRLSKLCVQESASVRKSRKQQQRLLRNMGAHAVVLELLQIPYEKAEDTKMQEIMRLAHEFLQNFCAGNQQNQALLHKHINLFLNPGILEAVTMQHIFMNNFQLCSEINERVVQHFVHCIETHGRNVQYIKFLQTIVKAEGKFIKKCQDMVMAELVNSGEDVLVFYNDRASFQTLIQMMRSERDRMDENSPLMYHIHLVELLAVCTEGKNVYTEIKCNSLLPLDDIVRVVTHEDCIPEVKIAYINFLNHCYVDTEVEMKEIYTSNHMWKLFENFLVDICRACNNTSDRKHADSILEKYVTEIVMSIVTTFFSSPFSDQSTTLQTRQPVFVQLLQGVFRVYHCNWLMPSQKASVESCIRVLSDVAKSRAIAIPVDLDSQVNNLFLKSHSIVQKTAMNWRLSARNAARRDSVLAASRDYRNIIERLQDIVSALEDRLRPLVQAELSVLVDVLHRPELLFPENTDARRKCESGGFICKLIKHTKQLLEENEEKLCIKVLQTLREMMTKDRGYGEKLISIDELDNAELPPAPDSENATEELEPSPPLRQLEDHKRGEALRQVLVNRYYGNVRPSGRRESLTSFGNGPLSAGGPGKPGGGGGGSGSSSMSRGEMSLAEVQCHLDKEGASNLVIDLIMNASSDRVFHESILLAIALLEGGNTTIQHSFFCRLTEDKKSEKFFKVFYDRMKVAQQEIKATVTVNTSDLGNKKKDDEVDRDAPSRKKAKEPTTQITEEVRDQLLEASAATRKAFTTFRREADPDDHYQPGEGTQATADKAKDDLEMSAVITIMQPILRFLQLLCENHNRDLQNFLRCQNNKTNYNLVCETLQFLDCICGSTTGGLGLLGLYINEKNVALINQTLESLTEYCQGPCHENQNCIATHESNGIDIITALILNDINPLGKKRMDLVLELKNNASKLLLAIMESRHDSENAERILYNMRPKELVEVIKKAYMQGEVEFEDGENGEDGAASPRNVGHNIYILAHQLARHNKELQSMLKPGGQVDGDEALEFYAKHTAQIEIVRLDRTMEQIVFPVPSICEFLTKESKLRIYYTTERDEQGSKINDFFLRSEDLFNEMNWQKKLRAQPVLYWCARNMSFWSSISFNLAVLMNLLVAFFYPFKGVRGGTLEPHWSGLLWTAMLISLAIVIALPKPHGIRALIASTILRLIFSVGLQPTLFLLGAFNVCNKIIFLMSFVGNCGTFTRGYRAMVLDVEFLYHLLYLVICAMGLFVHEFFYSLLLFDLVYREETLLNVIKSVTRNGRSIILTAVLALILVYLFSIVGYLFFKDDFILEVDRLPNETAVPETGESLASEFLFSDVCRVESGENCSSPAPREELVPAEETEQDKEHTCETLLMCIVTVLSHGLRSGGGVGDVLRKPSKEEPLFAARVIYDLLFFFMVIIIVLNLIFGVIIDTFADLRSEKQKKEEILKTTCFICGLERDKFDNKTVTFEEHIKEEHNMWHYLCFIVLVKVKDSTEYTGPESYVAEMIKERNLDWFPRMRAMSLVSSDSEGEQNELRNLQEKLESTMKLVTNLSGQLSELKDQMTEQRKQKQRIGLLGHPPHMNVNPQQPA

Regarding Bok (from UniProt Q9UMX3), the Kd was 65 nM.
